Publication PMC8221199, “Semisynthetic ‘designer’ p53 sheds light on a phosphorylation–acetylation relay†”

B1: GADD45 target (dsDNA)
DNA 1: GTACAGAACATGTCTAAGCATGCTGGGGAC
DNA 2: GTCCCCAGCATGCTTAGACATGTTCTGTAC
B2: randomized competitor (dsDNA)
DNA 1: CCACCATACCTTCGATTATCGCGCCCACTC
DNA 2: GAGTGGGCGCGATAATCGAAGGTATGGTGG
B3: GADD45 unlabelled competitor (dsDNA)
DNA 1: B1 DNA 1
DNA 2: B1 DNA 2

What was measured:
p53rec [1] = target: T1, p53rec (UniProt P04637 1-393); assay: EMSA; 0.4 uM p53 (0.1 uM tetramer), 20 nM DNA; EMSA: 0.4 uM p53 variant (0.1 uM tetramer), 20 nM 32P-DNA, 1 uM unlabelled competitor where used, 20 min at RT, native gel; a p53 369-383 peptide was synthesized for the EMSAs; buffer, salt and pH not in the material; conditions: protein: recombinant; tags: untagged; chain copies: 4; label: 32P
T1 sequence (P04637 whole entry): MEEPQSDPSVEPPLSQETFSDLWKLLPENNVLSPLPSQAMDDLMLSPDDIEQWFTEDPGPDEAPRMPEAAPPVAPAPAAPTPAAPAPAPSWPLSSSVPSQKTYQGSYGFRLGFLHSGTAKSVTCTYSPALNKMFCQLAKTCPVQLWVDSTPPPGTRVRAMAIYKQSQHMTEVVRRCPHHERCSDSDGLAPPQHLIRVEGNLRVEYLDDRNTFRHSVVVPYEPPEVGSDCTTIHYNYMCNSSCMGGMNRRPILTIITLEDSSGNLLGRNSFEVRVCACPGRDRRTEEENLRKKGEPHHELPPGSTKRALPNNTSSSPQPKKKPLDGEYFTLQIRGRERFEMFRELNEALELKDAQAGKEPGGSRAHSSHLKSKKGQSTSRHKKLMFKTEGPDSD

p53rec [2] = target: T1, p53rec; assay: competition; 1 uM competitor vs 20 nM labelled GADD45; EMSA: 0.4 uM p53 variant (0.1 uM tetramer), 20 nM 32P-DNA, 1 uM unlabelled competitor where used, 20 min at RT, native gel; a p53 369-383 peptide was synthesized for the EMSAs; buffer, salt and pH not in the material; conditions: protein: recombinant; tags: untagged; chain copies: 4; label: none (unlabelled)

Row | Binder | binding result (p53rec [1]) | binding result (p53rec [2])
1 | B1 | binds | 
2 | B2 |  | no binding
3 | B3 |  | binds
